Measurements from patent publication US20170115280A1.

What was measured:
[1] = target: reconstituted nascent HDL (rHDL) particle made with isolated human apoA-I (human) (UniProt P02647); experiment: SPR (BIAcore 3000), rHDL immobilized on CM5 chip, apparent Kd, 1:1 binding with drifting baseline
[2] = target: reconstituted nascent HDL (rHDL) particle made with isolated human apoA-I (human) (UniProt P02647); experiment: SPR (BIAcore 3000), rHDL immobilized on CM5 chip, rPON1 500-2000 nM in flow
[3] = target: reconstituted nascent HDL (rHDL) particle made with isolated human apoA-I (human) (UniProt P02647); experiment: SPR, rHDL immobilized on CM5 chip

Chain of reconstituted nascent HDL (rHDL) particle made with isolated human apoA-I (human) (P02647 25-267 limits assumed): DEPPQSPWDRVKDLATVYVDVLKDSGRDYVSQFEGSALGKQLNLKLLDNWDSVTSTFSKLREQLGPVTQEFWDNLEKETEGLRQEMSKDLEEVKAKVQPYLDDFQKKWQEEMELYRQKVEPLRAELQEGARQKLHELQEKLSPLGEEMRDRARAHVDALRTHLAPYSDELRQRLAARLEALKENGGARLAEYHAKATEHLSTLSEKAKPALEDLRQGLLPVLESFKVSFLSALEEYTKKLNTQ

Substance | Kd [1] | koff [2] | kon [2] | fold less binding capacity compared with rPON1 WT [3]
rPON1 pan E mutant (Leu9→Glu9, Tyr185→Glu185 and Tyr293→Glu293) with C-terminal His8 tag (enzyme) | 59 µM | 0.05 s⁻¹ | 850 M⁻¹ s⁻¹ | –
rPON1 pan K mutant (Leu9→Lys9, Tyr185→Lys185 and Tyr293→Lys293) with C-terminal His8 tag (enzyme) | – | 6e-05 s⁻¹ | – | 1000 fold
recombinant paraoxonase 1 (PON1) variant G3C9, His-tagged (rPON1 WT) (enzyme) | 0.00071 µM | 8.5e-07 s⁻¹ | 1200 M⁻¹ s⁻¹ | –
